Source: US11485776B2, “Antibodies against infectious diseases” (priority 2015, dated 2022)
“Also recorded” adds a separate entry of the source. Read-outs that look alike come from different tables or passages of the source.

How the values were obtained:
CaENO1 [1] = biological target: T1, CaENO1 (Candida albicans, UniProt P30575); format: binding, C. albicans
T1 construct: using full-length CaENO1 (1323 bp) as template; His (N); made in house; host or cells: E. coli BL21
Method: (§1) (A) Purified CaS1 scFv was used to recognize recombinant CaENO1 protein. The CaS1 scFv were used as primary antibody with series dilution. The goat anti-chicken light chain IgG was used as secondary antibody. The HRP conjugated donkey anti-goat IgG was used to decet. (B) OD value was calculated into percentage. […] The goat anti-chicken light chain IgG was used as secondary antibody. The HRP conjugated donkey anti-goat IgG was used to detect. (D) We calculated OD value into percentage.
The goat anti-chicken light chain IgG was used as secondary antibody. The HRP conjugated donkey anti-goat IgG was used to decet. (B, D) OD value was calculated into percentage. […] ELISA data were represented as mean±SD of the duplicated well.
After vigorous washings, the bound IgY antibodies were detected by adding HRP-conjugated polyclonal donkey anti-chicken IgY antibodies (1:3,000) (Bethyl Laboratories, Montgomery, Tex., USA) while the bound CaS1 scFv antibodies were detected by goat anti-chicken light chain antibodies (1:3,000) (Bethyl Laboratories, Montgomery, Tex., USA), followed by HRP-conjugated donkey anti-goat IgG antibodies (Jackson ImmunoResearch, USA). After washing as above, a tetramethylbenzidine (TMB) substrate solution (Sigma, USA) was added to the wells for color development. The reaction was stopped with 1 N HCl and optical density was measured at 450 nm using an ELISA plate reader (BioTek Synergy HT). Dissociate constant (KD) was calculated according to the equation, grams/molecular weight (Da)×volume (L)^−1.
The goat anti-chicken light chain IgG was used as secondary antibody. The HRP conjugated donkey anti-goat IgG was used to decet (see FIGS. 14 (A) and (C)). OD value was calculated into percentage. […] ELISA data were represented as mean±SD of the duplicated well (see FIGS. 14 (B) and (D)).

CaENO1 [2] = biological target: T1, CaENO1; format: binding, C. albicans; conditions: free form vs fixed form recombinant CaENO1
Method: as §1

mENO1 = biological target: T2, mENO1 (Mus musculus, UniProt P17182); test: Western blot on purified mouse ENO1 protein; format: binding
T2 construct: His; made in house; host or cells: E. coli BL21 (by 'in the same way')
Source text: Lane M contained protein markers.
The ImageQuant LAS4500 was used for ECL intensity detection.

C. albicans = test: Flow cytometry of C. albicans, propidium iodide cell death; format: cell-based, C. albicans SC 5314; conditions: 100 ug antibody, 10^5 cells, 2 hours at 37° C.
Method: (A) C. albicans SC 5314 were cultured overnight and 10^5 cells were added to each tube with 2 ml YPD medium. Experiment antibodies were added to each tube (1) Anti-CaENO1 IgY (100 ug) (2) Control scFv (100 ug) (3) scFv CaS1 (100 ug) (4) PBS, and cultured 2 hours at 37° C. in an incubator. Goat anti-chicken light chain (1:1500) antibody was used as detected antibody; FITC donkey anti-goat antibody (1:1000) was used as developed antibody to detect the reaction. Propidium iodide (PI) (1 ug/ml) was used to detect cell death. (B) Quantification of flow cytometry result in the panel A (*, p<0.05;**, p<0.01). Flow cytometry is represented as mean±SD of the duplicated experiment.
Anti-CaENO1 IgY, scFv CaS1 and control scFv were contacted with C. albicans and then subjected to flow cytometry assay. Anti-CaENO1 IgY, scFv CaS1 and control scFv show 89.7+/−2.8%, 46.64+/−3.1% and 23+/−2.3% FITC fluorescence reaction (FIG. 7A), representing that the antibody can bind to alpha-enolase on the surface of C. albicans.

[3] = tested on: binding of C. albicans cells to human oral keratinocyte OECM-1 cells; test: Adhesion assay of C. albicans to OECM-1 cells; format: cell-based; conditions: 50 μg and 100 μg, vs PBS control
Method: C. albicans were mixed with 1×PBS, 50 ug or 100 ug CaS1 scFv at 37° C. for 1 hr and added into OECM-1 cells in culture wells as described in the text. After being washed, cells attached to C. albicans were detected by adding HRP-conjugated anti-C. albicans antibodies.
Cell adhesion assay was performed using human oral epidermal cells (OECM-1) (XXX). C. albicans (1×10^6 cfu) were pre-incubated with CaS1 scFv antibodies ([…]) at 37° C. for 1 hr. After incubation, the mixtures were two-fold diluted and added onto 10^4 OECM-1 cells cultured in 96-well plates. The plates were further incubated at 4° C. for 2 hrs. After being washed three times with 1×PBS, the plates were fixed with 10% formaldehyde. After being washed as above, the wells were blocked with skim milk for 1 hr. Thereafter, rabbit anti-C. albicans antibodies (1:3,000, Bethyl, USA) were added and incubated for another 1 hr, followed by adding the HRP-conjugated anti-rabbit antibodies (1:3,000, Bethyl, USA). Washings as above were always carried out between steps. TMB was used for color development, which was stopped with 1 N HCl. The intensity of the color was measured at 450 nm on an ELISA plate reader.
C. albicans cells (1×10^6) were treated with 50 μg and 100 μg of scFv CaS1, respectively, and the resulting mixtures were added to human oral keratinocyte OECM-1 cells to test the binding ability of C. albicans cells to OECM-1 cells.

[4] = biological target: T3, CaENO1 binding to plasminogen (Candida albicans, UniProt P30575); test: Fibrin matrix-gel degradation with CaENO1 on Ni sepharose; format: biochemical, C. albicans; conditions: antibody 100 ug; for Binding of CaENO1 to plasminogen: CaENO1 on Ni sepharose
T3 construct: using full-length CaENO1 (1323 bp) as template; made in house; host or cells: E. coli BL21
Method: Each experimental group of CaENO1 with CaS1 scFv were dropped onto gel and incubated at room temperature for 2 days to observe gel degrade result. (1) plasminogen (1 ug/ul) only. (2) CaENO1 on Ni Sepharose™ (10 ug). (3) CaENO1 on Sepharose™ (10 ug) with plasminogen (20 ug).
Each experimental group of CaENO1 with CaS1 scFv were dropped onto gel and incubated at room temperature for 2 days to observe gel degrade result an the results are shown in FIG. 15.

T1 sequence (P30575 whole entry): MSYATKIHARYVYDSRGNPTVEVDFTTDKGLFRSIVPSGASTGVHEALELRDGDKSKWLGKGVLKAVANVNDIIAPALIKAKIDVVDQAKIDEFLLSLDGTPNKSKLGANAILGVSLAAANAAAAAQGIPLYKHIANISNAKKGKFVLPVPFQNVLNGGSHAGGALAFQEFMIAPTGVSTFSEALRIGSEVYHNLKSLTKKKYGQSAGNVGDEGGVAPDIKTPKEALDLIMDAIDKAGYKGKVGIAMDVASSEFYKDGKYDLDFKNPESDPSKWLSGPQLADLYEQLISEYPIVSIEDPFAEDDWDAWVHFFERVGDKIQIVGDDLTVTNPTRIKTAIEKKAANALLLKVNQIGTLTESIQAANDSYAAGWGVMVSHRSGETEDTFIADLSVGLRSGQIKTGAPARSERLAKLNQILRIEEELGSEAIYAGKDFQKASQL
T3 sequence (P30575 whole entry): as above
T2 sequence (P17182 whole entry): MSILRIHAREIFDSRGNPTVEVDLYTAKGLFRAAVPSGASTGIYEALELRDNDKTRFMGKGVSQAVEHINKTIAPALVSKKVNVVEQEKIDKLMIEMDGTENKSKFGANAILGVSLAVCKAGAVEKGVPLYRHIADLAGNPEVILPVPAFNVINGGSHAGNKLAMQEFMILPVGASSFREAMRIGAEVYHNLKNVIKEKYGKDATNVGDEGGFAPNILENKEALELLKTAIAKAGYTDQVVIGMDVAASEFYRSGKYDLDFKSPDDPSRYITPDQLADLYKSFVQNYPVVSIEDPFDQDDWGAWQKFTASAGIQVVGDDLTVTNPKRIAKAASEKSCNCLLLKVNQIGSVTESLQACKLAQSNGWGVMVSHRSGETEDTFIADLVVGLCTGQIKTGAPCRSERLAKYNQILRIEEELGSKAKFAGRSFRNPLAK

B1: CaS1 scFv: anti-CaENO1 scFv monoclonal antibody from chicken phage library; light chain SEQ ID NO:11, heavy chain SEQ ID NO:12 (antibody, V domains shown)
VH: TVTLDESGGGLQTPRGALSLVCKASGFTFIDYGMQWVRQAPGKGLEWVAGIGSSGSSTNYGAAVKGRATISRDDGQSTVRLQLNNLRAEDTGTYYCAKSAGGYCVNGAGCNGGSIDAWGHGTEVIVSS
VL: ALTQPSSVSANLGGTVKITCSGGSGSYGWYQQKSPGSAPVTVIYSNNQRPSNIPSRFSGSPSGSTGTLTITGVQADDEAVYFCGSRDSSYVGVFGAGTTLTVL
modifications: scFv linker; amino acid sequence comprised in a heavy chain of an anti-CaENO1 scFv monoclonal antibody (CaS1); amino acid sequence comprised in a light chain of an anti-CaENO1 scFv monoclonal antibody (CaS1)
With B1 the “Binding activity to recombinant CaENO1 on ELISA” value (CaENO1 [1]) was “concentration dependent”, the “KD by ELISA” value (CaENO1 [1]; recombinant CaENO1 coated, KD or EC50 from OD percentage) was 0.498 µg/mL and the Kd (CaENO1 [1]; recombinant CaENO1 coated, KD or EC50 from OD percentage, read-out: KD by ELISA) was 18.8 nM. For the same molecule, the “KD by competitive ELISA” value (CaENO1 [2]) was 4.45 µg/mL, the Kd (CaENO1 [2]; read-out: KD by competitive ELISA) was 89 nM and the “Binding to purified mENO1 (Western blot)” value (mENO1) was “very little; also recorded: weak cross reactivity”. The “mortality rate of C. albicans (propidium iodide)” value (C. albicans) was 37+/−0.8%, the “Binding of C. albicans cells to OECM-1 cells” value (from here on “Binding of C. albicans cells”) ([3]; listed as CaS1) was “inhibited its adherence” and the “Binding of C. albicans cells” value ([3]; listed as CaS1 ScFv) was “inhibited”. For the same molecule, the “Binding of C. albicans cells” value ([3]; listed as scFv CaS1) was “significantly reduced”, the “Fibrinolytic activity of CaENO1 on Sepharose with plasminogen” value ([4]; CaENO1 10 ug, plasminogen 20 ug, 2 days) was “no fibrinolytic activity” and the “Binding of CaENO1 to plasminogen” value [4] was “significantly reduced”. The “Binding of CaENO1 to plasminogen” value ([4]; listed as CaS1) was “inhibits”.
